Laboratory results as given in the RNAGym collection of RNA variant scans (doi:10.1073/pnas.2313332121).

B1: TPR t1 (parent)
chain: GACCAAUCUGCCCUCAGAGCUCGAGAACAUCUUCGGAUGCAGAGGAGGCAGGCUUCGGUGGCGCGAUAGCGCCAACGUCCUCAACCUCCAAUGCAUCCCACCACAUGAUGAUGCCUGAAGAGCCUUGGUUUUUUG

Variants of: B1
Test: polymerase ribozyme fitness, log enrichment relative to wild type (log ratio); higher = more active; in vitro selection for triplet polymerase activity
Procedure, shortened: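 The heterodimeric triplet polymerase ribozyme's subunits were each mutagenized into PCR-built libraries and transcribed. Every library was selected once, in triplicate, by annealing with a biotinylated primer, the partner subunit and triplets, incubating frozen at −7 °C, gel-excising extended constructs, capturing on streptavidin beads and running RT-PCR. Input and output libraries were Illumina-sequenced, with genotypes kept only at ≥10 input reads and ≥1 read per output. Fitness, from inverse-variance-weighted replicate averages, is the base-2 logarithm of genotype enrichment over wild-type enrichment.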

Variant | polymerase ribozyme fitness (log ratio)
C31U G60A G107A | -1.03
C72U U125C | -1.92
C8A C104A A105C C124G U126G | -3.52
U7A G48U C94G U116C G120A | -2.95
C11A C53U U129A | -2.66
C72G G113A | -1.71
G61C C80A G107U C114U G127C | -5.81
C3G A5G U112C | -0.649
C20G U96G | -3.91
A43C C56U C79G | -5.29
C79U C88U C97U | -0.508
C22G G42U G44U C89U | -4.83
C11A C85A C114A C123U | -2.71
A41G G61C C94A A111U | -5.2
C13G U32C | -2.08
C13G C89G | -3.05
A5G A18U A103U C114A G120U | -3.91
C3A G10A G44U | -3.54
U14C C53G C73U A83G C94U | -3.11
A95U A111U G120U | -5.49
A5U A43G G48A C62U A103U G110U | -6.17

Variant | polymerase ribozyme fitness (log ratio)
G63U C82U | -1.76
G48C C76U C88U | -1.76
G63U C123G | 0.817
C40U G69C C85U A100G U106C U112C | -4.82
C40G C104A C124G | 0.0636
G19A G69U G127C | -2.66
A46U C88U | -1.61
U9C | 0.614
U9A | 0.517
C8U C13U C22G U59A U81C U109A | -5.73
G120A U132A | 1.97
G63C C72G | -5.46
G39U U55A G60A | -0.52
A18U U21A G51C C53G C56A G57C C79U C115U U130G U131A | -5.86
G128A U133A | -3.85
A6C A121U | 1.95
C76U U106C G128C | -3.51
G63A A84C | -0.832
C12U G19A G71A C73U C123A | -1.42
G93A G122A | -1.4
C40A G77A | -1.33

Variant | polymerase ribozyme fitness (log ratio)
G51A C62A G117U U134G | -5.73
A6G C12A C80U G113U | -3.95
C8U C76A A118G | -0.712
C56U U87C C94U A95C G113A | -2.65
A16U U55A U81A A84C U132A | -2.61
A27G U38A A83C | -2.58
C64U C72U A83G U133G | -1.1
C22G G57A G63A C101A A105U | -6.73
A43U U59G G110A | -5.07
C49A C53U G61A C101A | -0.913
G42A C82A A91C C115G | -4.43
C13G A90G | -1.86
A50C G52U | -2.09
G10A G61A C94U | -0.166
G36C C76U C123U | -0.606
C70U U106A U109G | -4.62
A27U U131C | -2.91
U7G C53G A90G | 0.0166
U9C C40G G63U G69U C79G C82U A118U A119G G135U | -4.3
A2G C15G G44A C62A A90C C97U G120A | -3.89
A111G U130G | -0.2

Variant | polymerase ribozyme fitness (log ratio)
C56U C72U C79U C101A | -1.28
A2U G63A | -2.23
A46C G120A U126A | -0.908
G17A C70U G120U | -2.58
G10A A41U | -0.89
G63C C80U A118C G120A | -3.34
G39A G51U U78A | -4.54
C12U A50U U59G G63A A119U | -2.52
G35A U132A | -3.49
C85U C86G A118C | -3.84
G63A C79G U109G | -7.2
C28A G127C | -5.95
A37U G57C G63A | -1.29
U7A C20G G25C C34G A43C G52A G113C | -7.56
A26G G63U | -3.45
C13U G25C U33G C70U U81A U109A | -6.3
G71U U92C | -1.11
C99A A103C C104A | -4.54
C11U C89U C99U A121U U131A | -1.82
G44U G58C G113A | -1.31
G19U G63C U92A | -5.54
